# “And” between values parts separate entries of the source, which are not always exact repeats. Identical values can stand only once.
# B1: recombinant wild-type ADAMTS13 containing a V5- and a His-tag (wt-rADAMTS13) (protein)
# chain: AAGGILHLELLVAVGPDVFQAHQEDTERYVLTNLNIGAELLRDPSLGAQFRVHLVKMVILTEPEGAPNITANLTSSLLSVCGWSQTINPEDDTDPGHADLVLYITRFDLELPDGNRQVRGVTQLGGACSPTWSCLITEDTGFDLGVTIAHEIGHSFGLEHDGAPGSGCGPSGHVMASDGAAPRAGLAWSPCSRRQLLSLLSAGRARCVWDPPRPQPGSAGHPPDAQPGLYYSANEQCRVAFGPKAVACTFAREHLDMCQALSCHTDPLDQSSCSRLLVPLLDGTECGVEKWCSKGRCRSLVELTPIAAVHGRWSSWGPRSPCSRSCGGGVVTRRRQCNNPRPAFGGRACVGADLQAEMCNTQACEKTQLEFMSQQCARTDGQPLRSSPGGASFYHWGAAVPHSQGDALCRHMCRAIGESFIMKRGDSFLDGTRCMPSGPREDGTLSLCVSGSCRTFGCDGRMDSQQVWDRCQVCGGDNSTCSPRKGSFTAGRAREYVTFLTVTPNLTSVYIANHRPLFTHLAVRIGGRYVVAGKMSISPNTTYPSLLEDGRVEYRVALTEDRLPRLEEIRIWGPLQEDADIQVYRRYGEEYGNLTRPDITFTYFQPKPRQAWVWAAVRGPCSVSCGAGLRWVNYSCLDQARKELVETVQCQGSQQPPAWPEACVLEPCPPYWAVGDFGPCSASCGGGLRERPVRCVEAQGSLLKTLPPARCRAGAQQPAVALETCNPQPCPARWEVSEPSSCTSAGGAGLALENETCVPGADGLEAPVTEGPGSVDEKLPAPEPCVGMSCPPGWGHLDATSAGEKAPSPWGSIRTGAQAAHVWTPAAGSCSVSCGRGLMELRFLCMDSALRVPVQEELCGLASKPGSRREVCQAVPCPARWQYKLAACSVSCGRGVVRRILYCARAHGEDDGEEILLDTQCQGLPRPEPQEACSLEPCPPRWKVMSLGPCSASCGLGTARRSVACVQLDQGQDVEVDEAACAALVRPEASVPCLIADCTYRWHVGTWMECSVSCGDGIQRRRDTCLGPQAQAPVPADFCQHLPKPVTVRGCWAGPCVGQGTPSLVPHEEAAAPGRTTATPAGASLEWSQARGLLFSPAPQPRRLLPGPQENSVQSSACGRQHLEPTGTIDMRGPGQADCAVAIGRPLGEVVTLRVLESSLNCSAGDMLLLWGRLTWRKMCRKLLDMTFSSKTNTLVVRQRCGRPGGGVLLRYGSQLAPETFYRECDMQLFGPWGEIVSPSLSPATSNAGGCRLFINVAPHARIAIHALATNMGAGTEGANASYILIRDTHSLRTTAFHGQQVLYWESESSQAEMEFSEGFLKAQASLRGQYWTLQSWVPEMQDPQSWKGKEGT
# B2: anti-human von Willebrand factor monoclonal antibody 508 (mAb508) (antibody, mouse IgG1, kappa, V domains shown)
# VH: DVQLQESGPDLVEPSQSLSLSCTVTGYSITSGYSWHWIRQFPGNKLEWLGYIHYSGTTTYNPSLHSRVSITRDTSKNQFFLQLNSVSTEDTATYFCGREGYHWGQGTTLTVSS
# VL: DVVMTQTPLSLPVSLGDQASISCRSSQSLVHSIGNTYLHWYLQKPGQSPKLLIYKVSNRFSGVPDRFSGSGSGTDFTLKISRVEAEDLGVYFCSQTTHVPLTFGGGTRLEIKR
# notes: Murine monoclonal antibody purified from hybridoma; also called antibody mAb508
# Experiments:
# [1] = target: recombinant wild-type ADAMTS13 containing a V5- and a His-tag (wt-rADAMTS13) (human) (UniProt Q76LX8); assay: competition immuno-sorbent assay, fragment 10 nM pre-incubated with wt-rADAMTS13, immobilized pd-VWF
# [2] = target: recombinant wild-type ADAMTS13 containing a V5- and a His-tag (wt-rADAMTS13) (human) (UniProt Q76LX8); assay: cell-based or functional assay
# [3] = target: purified plasma-derived von Willebrand factor (pd-VWF), P04275
# [4] = target: T1, purified plasma-derived von Willebrand factor (pd-VWF) (human, UniProt P04275 764-2813); assay: competitive immuno-sorbent assay, mAb508 0 to 50 µg/ml against ADAMTS13 (4 µg/ml) on coated VWF (2 µg/ml)
# T1 construct: mature; Multimeric plasma protein; also called full-length VWF; globular full-length VWF
# [5] = target: T1, purified plasma-derived von Willebrand …; assay: BLI (Octet-QK), equilibrium responses, mAb508 on protein A biosensors, pd-VWF in solution, single class of binding sites
# Description: Subsequently, biosensors were incubated with various concentrations purified pd-VWF (0-0.2 mg/ml) and association of VWF was monitored real-time for a 10-min period until equilibrium was reached. Data represent mean±SD of four independent associations and depicted are the calculated responses (shift in nm) at equilibrium versus VWF concentration. The drawn line represents the best fit using a model describing the interaction of a single class of binding sites.
# Biolayer interferometry-analysis: Equilibrium binding assays were performed via biolayer interferometry (BLI)-analysis using Octet-QK equipment (ForteBio, Reading, UK) essentially as described (26). […] Biosensors were then incubated for 5 min in BLI-buffer to achieve stable baseline, and subsequently incubated with various concentrations of pd-VWF in BLI-buffer for 10 min. All incubations were performed at room temperature under continuous shaking (1000 rpm). Data were analyzed using Octet Software version 4.0.
Molecule,inhibition of ADAMTS13 binding to immobilized VWF [1] [%],other results
A1-Fc (from UniProt P04275 1261-1478) (Fc fusion),< 20,–
A2-Fc (from UniProt P04275 1480-1672) (Fc fusion),65,"residual proteolysis of VWF by ADAMTS13, vortex-based degradation assay, A2-Fc 1 µg/ml [2]: 96%"
A3-Fc (from UniProt P04275 1681-1878) (Fc fusion),< 20,–
D4-Fc (from UniProt P04275 1947-2301) (Fc fusion),< 20,–
D′D3-HPC4 (from UniProt P04275 764-1247),< 20,–
B1,–,"proteolytic cleavage of pd-VWF (30 µg/ml) by recombinant ADAMTS13 (3 µg/ml), vortex-based degradation assay [3]: proteolytic cleavage of pd-VWF (30 µg/ml) by recombinant ADAMTS13 (3 µg/ml) increases as a function of incubation time, with maximal degradation obtained after 30 min"
B2,–,IC50 [4]: 0.09 µg/mL; Kd [5]: 13 µg/mL and 52 nM

# Source: US20170037148A1 (INSERM INSTITUT NATIONAL DE LA SANT ET DE LA RECHERCHE M …, published 2017)
